The target in assay [1] is gp120 of HIV-1NL4-3 (on virus particles) (HIV-1 (NL4-3)). The assay can be described thus: immunoblot with 2G12, band value, 1st column: Day 5, - MoMo30 by the order of the lanes above.
Assay [2] has the same target. The assay can be described thus: immunoblot with 2G12, band value, 2nd column: Day 8, - MoMo30 by the order of the lanes above.
Assay [3] has the same target. The assay is described as follows: immunoblot with 2G12, band value, 4th column: Day 5, + MoMo30 by the order of the lanes above.
Assay [4] shares this target. The assay is described as follows: immunoblot with 2G12, band value, 5th column: Day 8, + MoMo30 by the order of the lanes above.
Assay [5] shares this target. The assay can be described thus: immunoblot with 2G12, band value, 3rd column: Day 12, - MoMo30 by the order of the lanes above.
The target is the same in assay [6]. The assay can be described thus: immunoblot with 2G12, band value, 6th column: Day 12, + MoMo30 by the order of the lanes above.

With “monoclonal antibody 2G12 (AIDS reagent program; cat #1476)”, the gp120 (row of the table under the blot) in assay [1] stood at 65; in assay [2], 51; in assay [3] it was 87; in assay [4], 51; in assay [5] it was 100; in assay [6], 16.

The values above are taken from patent US20220395548A1.
